Test results taken from paper PMC2788523, “Overexpression and characterization of medium-chain-length polyhydroxyalkanoate granule bound polymerases from Pseudomonas putida GPo1” (Microbial Cell Factories, 2009).

B1: PhaC1 (PHA polymerase 1), granule-bound (Ectopseudomonas oleovorans) (protein)
chain: MSNKNNDELQRQASENTLGLNPVIGIRRKDLLSSARTVLRQAVRQPLHSAKHVAHFGLELKNVLLGKSSLAPESDDRRFNDPAWSNNPLYRRYLQTYLAWRKELQDWIGNSDLSPQDISRGQFVINLMTEAMAPTNTLSNPAAVKRFFETGGKSLLDGLSNLAKDLVNNGGMPSQVNMDAFEVGKNLGTSEGAVVYRNDVLELIQYKPITEQVHARPLLVVPPQINKFYVFDLSPEKSLARYCLRSQQQTFIISWRNPTKAQREWGLSTYIDALKEAVDAVLAITGSKDLNMLGACSGGITCTALVGHYAALGENKVNALTLLVSVLDTTMDNQVALFVDEQTLEAAKRHSYQAGVLEGSEMAKVFAWMRPNDLIWNYWVNNYLLGNEPPVFDILFWNNDTTRLPAAFHGDLIEMFKSNPLTRPDALEVCGTPIDLKQVKCDIYSLAGTNDHITPWQSCYRSAHLFGGKIEFVLSNSGHIQSILNPPGNPKARFMTGADRPGDPVAWQENATKHADSWWLHWQSWLGERAGELEKAPTRLGNRAYAAGEASPGTYVHER
notes: overexpressed from pGEc405 in PHA-negative P. putida GPp104; assayed on isolated PHA granules (other granule proteins present)
B2: PhaC2 (PHA polymerase 2), granule-bound (Ectopseudomonas oleovorans) (protein)
chain: MKDKPAKGTPTLPATSMNVQNAILGLRGRDLISTLRNVSRQSLRHPLHTAHHLLALGGQLGRVILGDTPLQPNPRDPRFSDPTWSQNPFYRRGLQAYLAWQKQTRLWIEESHLDDDDRARAHFLFNLINDALAPSNSLLNPLAVKELFNSGGQSLVRGVAHLLDDLRHNDGLPRQVDERAFEVGGNLAATAGAVVFRNELLELIQYKPMSEKQHARPLLVVPPQINKFYIFDLSSTNSFVQYMLKNGLQVFMVSWRNPDPRHREWGLSSYVQALEEALNACRSISGNRDPNLMGACAGGLTMAALQGHLQAKHQLRRVRSATYLVSLLDSKFESPASLFADEQTIEAAKRRSYQRGVLDGAEVARIFAWMRPNDLIWNYWVNNYLLGKTPPAFDILYWNADSTRLPAALHGDLLDFFKLNPLTHPAGLEVCGTPIDLQKVELDSFTVAGSNDHITPWDAVYRSALLLGGDRRFVLANSGHIQSIINPPGNPKAYYLANPKLSSDPRAWLHDAKRSEGSWWPLWLEWITARSGPLKAPRSELGNATYPPLGPAPGTYVLTR
notes: overexpressed from pGEc404 in PHA-negative P. putida GPp104; assayed on isolated PHA granules (other granule proteins present)

Substrate: CCCCC[C@@H](O)CC(=O)SCCNC(=O)CCNC(=O)[C@H](O)C(C)(C)COP(=O)(O)OP(=O)(O)OC[C@H]1O[C@@H](n2cnc3c(N)ncnc32)[C@H](O)[C@@H]1OP(=O)(O)O
Test: cells, lysate or membranes
Format: biochemical, Ectopseudomonas oleovorans
Conditions: granule-bound enzyme (isolated PHA granules), 100 mM Tris-HCl pH 8, 1 mg/ml BSA, 0.5 mM MgCl2, substrate 0.0375-0.25 mM

| Protein | Km [µM] |
| --- | --- |
| B1 | 125 ± 35 |
| B2 | 37 ± 10 |
